# Results as given in patent US6001353A, “20α-alpha-hydroxy steroid dehydrogenase related material and methods” (priority 1997, dated 1999).
# T1: recombinant 20α-HSD (Rattus norvegicus, UniProt P51652)
# T1 sequence (P51652 1-323): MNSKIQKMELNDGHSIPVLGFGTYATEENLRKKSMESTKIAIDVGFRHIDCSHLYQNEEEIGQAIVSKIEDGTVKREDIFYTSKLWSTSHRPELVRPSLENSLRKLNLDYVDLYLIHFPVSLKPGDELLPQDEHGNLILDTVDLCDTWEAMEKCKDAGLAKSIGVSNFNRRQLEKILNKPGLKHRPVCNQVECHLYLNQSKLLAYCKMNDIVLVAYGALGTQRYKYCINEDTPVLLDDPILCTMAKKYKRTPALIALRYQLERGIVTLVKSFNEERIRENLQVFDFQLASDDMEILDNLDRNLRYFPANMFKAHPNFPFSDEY
# Tests used:
# [1] = molecular target: T1, recombinant 20α-HSD; experiment: Catalytic activity of phosphorylated versus non-phosphorylated 20α-HSD, radiochemical; format: biochemical; set-up: a DNA fragment of 1.2 Kb containing the entire coding region of 20α-HSD; GST (removed with thrombin) (N, cleaved yes); made in house; host or cells: E. coli DH5α (pGEX-4T-2)
# Description: Enzyme activity of the recombinant 20α-HSD was determined by the rate of conversion of [1-2^3 H]-20α-hydroxy-pregn-4-ene-3-one (20α-hydroxprogesterone) to [1,2^3 H]progesterone in the presence of NADPH as described by Jones & Hsueh [J. Biol. Chem. 256:1248-1254 (1981)]. Enzyme activity was measured in this manner due to the fact that in an in vitro setting the reaction may be reversed, i.e. conversion of 20α-hydroxyprogesterone to progesterone. The assay mixtures (0.05 ml) contained 100 μM [1,2^3 H]hydroxyprogesterone [Dupont-New England Nuclear Research Products, Boston Mass.] […] Following incubation at 37° C. for 30 minutes, the [^3 H]progesterone content of each sample was determined after isolation by thin layer chromatography isolation. One unit of enzyme activity is defined as that amount of enzyme catalyzing the formation of 1 nmol of [^3 H]progesterone/minute from [1,2^3 H]hydroxyprogesterone. Specific activity is expressed as units/min/mg protein. The protein concentration was determined by the Bradford method using bovine serum albumin [Sigma Chemical Co, St. Louis, Mo.] as the standard [Bradford, Anal. Biochem. 72:248-254 (1976)]. […] Acta. 799:51-58 (1984); Noda et al., Biochim Biophys. Acta. 1079:112-118 (1991)]. […]
# [2] = system: src kinase (p60^src); experiment: In vitro kinase assay, phosphorylation of 20α-HSD by src kinase; format: biochemical; conditions: bacterially expressed enzyme
# Description: (§1) Purified recombinant 20α-HSD (of the bacterial expression system) was incubated with various protein kinases after an initial incubation with alkaline phosphatase (to ensure that the protein was in a non-phosphorylated state) and subsequently assayed for 20α-HSD activity.
# (§2) More particularly, purified bacterially expressed recombinant 20α-HSDwas first incubated in […] Tris-HCl (pH 8), 1 mM MgCl2, 1 mg/ml BSA, 0.5 mM dithiothreitol, and 60 U alkaline phosphatase coupled to agarose beads for 30 min. at 30° C. After centrifugation, the supernatant containing 20α-HSD was used as a substrate in various in vitro kinase assays. The protein kinase A (PKA), protein kinase C (PKC) and insulin receptor-associated tyrosine kinase activities were measured as described previously [Raz et al., Biochem. J. 269:603-607 (1990), Azhar et al., Am J. Physiol, 260:E1-E7 (1991)]. src kinase (p60^src) activity was assayed as described by Simonson and Herman [Simonson et al., J. Biol Chem., 268:9347-9357 (1993)].
# [3] = Peroxidase activity: oxidation of tetramethyl-p-phenylenediamine at 611 nm; format: biochemical; conditions: purified preparations from either expression system
# Description: (§3) To test for prostaglandin endoperoxide synthase type catalytic activity of recombinant 20α-HSD, both cyclooxygenase activity (which converts arachidonic acid into the hydroperoxide, PGG2) and peroxidase activity (which reduces PGG2 and other hydroperoxides to the corresponding alcohol, such as PGH2) were measured. The cyclooxygenase assay was performed by following the conversion of [^3 H] arachidonic acid [Dupont-New England Nuclear Research Products, Boston, Mass.] to [^3 H]PHG2 and [^3 H]PHE2 [Mitchell et al. Proc. Natl. Acad. Sci. USA 90:11693-11697, 1994]. Peroxidase activity was measured by monitoring the oxidation of N,N,N',N', tetramethyl-p-phenylenediamine at 611 nm [Iwata et al., Arch. Biochem. Biophys. 282:70-77 (1990)].
# [4] = system: purified rat liver PKC; experiment: In vitro kinase assay, phosphorylation of 20α-HSD by PKC; format: biochemical; conditions: bacterially expressed enzyme, [γ-32P]ATP
# Description: as §1
# as §2, with “(1993)]. […]” for “(1993)].”
# [5] = system: Pregnant Sprague-Dawley rats; experiment: Anti-reproductive effect in pregnant rats: serum progesterone (RIA) and termination of pregnancy; format: in vivo, rat
# Description: Pregnant Sprague-Dawley rats were treated with purified 20α-HSD produced by a bacterial expression system (see Example 1) to assess the effect of the enzyme on (1) progesterone levels and (2) the possible termination of pregnancy. More particularly, animals were divided into two treatment groups (7 rats per group: 6 receiving treatment, 1 control) and were injected (intraperitoneally) with the purified recombinant 20α-HSD and an eqimolar dose of NADPH. Injections were administered on day 8 of pregnancy and continued for 72 hours.
# Group 1 received intraperitoneal injections of the purified 20α-HSD (167 μg with an equimolar dose of NADPH) every 4 hours, continuing for 72 hours. Group 2 received intraperitoneal injections of the purified 20α-HSD (250 μg with an equimolar dose of NADPH) every 6 hours, continuing for 72 hours. The control treatment groups received an equal amount of GST alone with an eqimolar dose of NADPH. Blood samples were collected every 12 hours via jugular veins. Serum progesterone levels were determined by standard radioimmunoassay techniques [Gibori et al., Endocrinology 100:1483-1495 (1977)].
# [6] = system: insulin receptor-associated tyrosine kinase; experiment: In vitro kinase assay, phosphorylation of 20α-HSD by insulin receptor tyrosine kinase; format: biochemical; conditions: bacterially expressed enzyme
# Description: as §1, §2
# [7] = Cyclooxygenase assay: conversion of [3H]arachidonic acid; format: biochemical; conditions: purified preparations from either expression system
# Description: as §3
# [8] = system: protein kinase A (PKA); experiment: In vitro kinase assay, phosphorylation of 20α-HSD by PKA; format: biochemical; conditions: bacterially expressed enzyme, [γ-32P]ATP
# Description: as §1
# as §2, with “(1993)]. […]” for “(1993)].”
# [9] = Group 1 protocol, laparoscopy at 72 hour end point
molecule,measurement,setting,value
20α-hydroxysteroid dehydrogenase (protein) MNSKIQKMELNDGHSIPVLGFGTYATEENLRKKSMESTKIAIDVGFRHIDCSHLYQNEEEIGQAIVSKIEDGTVKREDIFYTSKLWSTSHRPELVRPSLENSLRKLNLDYVDLYLIHFPVSLKPGDELLPQDEHGNLILDTVDLCDTWEAMEKCKDAGLAKSIGVSNFNRRQLEKILNKPGLKHRPVCNQVECHLYLNQSKLLAYCKMNDIVLVAYGALGTQRYKYCINEDTPVLLDDPILCTMAKKYKRTPALIALRYQLERGIVTLVKSFNEERIRENLQVFDFQLASDDMEILDNLDRNLRYFPANMFKAHPNFPFSDEY,20α-HSD activity after phosphorylation with PKA,[1],not significantly affected
same,20α-HSD activity after phosphorylation with PKC,"[1]; ATP-Mg2+, diacylglycerol, phosphatidylserine",unaffected
same,phosphorylation of 20α-HSD by src kinase,[2],failed to phosphorylate
same,peroxidase activity,[3],Neither peroxidase not cyclooxygenase activity was detected
same,phosphorylation of 20α-HSD by PKC,[4],readily phosphorylated
same,time to significant decline of serum progesterone levels,[5]; Group 1: 167 μg i.p. every 4 hours,≤ 48 h
same,animals aborted totally,[5]; [9],5 animals
same,animals partially aborting,[5]; [9],2 animals
same,time to significant decline of serum progesterone levels,[5]; Group 2: 250 μg i.p. every 6 hours,60 h
same,time to termination of pregnancy,"[5]; pregnant rats, i.p. with equimolar NADPH from day 8 of pregnancy",≤ 72 h
same,circulating progesterone,"[5]; pregnant rats, i.p. with equimolar NADPH from day 8 of pregnancy, bacterially expressed enzyme",marked decrease
same,phosphorylation of 20α-HSD by insulin-receptor-associated tyrosine kinase,[6],failed to phosphorylate
same,cyclooxygenase activity,[7],Neither peroxidase not cyclooxygenase activity was detected
same,phosphorylation of 20α-HSD by PKA,[8],readily phosphorylated
